Results: the supplement of paper PMC12042874
± gives the uncertainty stated by the source.

Assay: amyloid nucleation score (Sup35N fusion, yeast selection) (log enrichment); library NNK3; higher = more nucleation; inactive = no reads after selection
Outline: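 The nucleation score is the log enrichment of output over input reads, calculated with DiMSum and centred on the mode score of non-aggregating sequences. Sequences with under 100 input reads were excluded. Reads came from Illumina sequencing of plasmid inserts from psi-negative yeast expressing Sup35N fused to peptides of 20 random codons, induced 24 hours with 100 μM copper sulfate and grown 7 days at 30°C without adenine and uracil.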

Substance | amyloid nucleation score
SILMMGNLFKLLRKF | inactive
SILSPYLV | inactive
SIQYIYFDASQMRIENSRSL | 2.37 ± 0.059
SIRVINKRHCCSSGDWREDR | 1.78 ± 0.081
SIRYFRLSGMMSMYFFCFVV | 0.952 ± 0.14
SISAALWAFL | inactive
SISCKKVGGSKASQRPYKA | inactive
SIVICS | inactive
SIYCANQRSLVYHYVLAFTT | inactive
SIYYSAILMGYWMDVKSLQY | inactive
SKCEMMRTLEESDDVSFVVK | inactive
SKCVYAVWCACVFARF | inactive
SKESTNSVRCVFITVSPTRR | 0.976 ± 0.21
SKFCSGSLFMIRCILGSRYL | inactive
SKKPVEMTRNI | inactive
SKKSRSLNWFLLVNRTPDAG | inactive
SKMRRSFCPIWFSRWSFLST | inactive
SKWSTEFLTCHT | inactive
SKWYLFITGFRYMWFVRFNV | inactive
SLAAIYSFVYFSSDVIRSHY | 1.34 ± 0.15
SLAGEHPRPIVG | inactive
SLASYLFTVTATNRYCERGA | 0.996 ± 0.12
SLCFGTP | inactive

Substance | amyloid nucleation score
SLCFRSIINIGFFK | 2.15 ± 0.056
SLCGLFRYAWYQFEFNDVRA | 0.977 ± 0.12
SLCSVLIMHPSNSDRF | 0.101 ± 0.75
SLDKSMSGKRSLVRADSTLS | -0.046 ± 0.88
SLDSYDTDLKGVCCQVFCIK | 3.24 ± 0.062
SLEVINVVRININNQEYIYL | 0.276 ± 0.23
SLFMMWLYVCQLYCLFDGIE | inactive
SLGLHIWFCTLLAIWTLLLL | inactive
SLGLNTPAREFYWGCILTFG | inactive
SLGQLYDLGSRW | -0.805 ± 1.7
SLKCLLLVMTCSLTSHAPPA | inactive
SLKELRVSLSSLCACDSNNN | inactive
SLLRDVKG | -0.487 ± 1.4
SLLSEMSTR | inactive
SLLWCKANPKRF | inactive
SLMKPKSVMEAKVIRINLCL | 0.494 ± 0.28
SLMTVRVNHK | 0.621 ± 0.2
SLRHLDFFRLTGFWHFYALD | inactive
SLRRKIGLLIFFDNLIF | inactive
SLRSCVYPMDDGIMQCWSSR | inactive
SLRSYSGILSFYGYSGKIST | inactive
SLSLNIQGSNYFLHIVNIGR | inactive
SLSTSNLNIKLSPCYSFNRH | 0.678 ± 0.31

Substance | amyloid nucleation score
SLTGRWSTVGRSMGLNTRGG | inactive
SLVAFPLFAGCVIW | inactive
SLVIQKSFRGDGLRVRHGLQ | inactive
SLVSGLRCVWLMFVSNGHQK | inactive
SLVTYNVVRSKARNRWIELV | inactive
SLYLGWVPAIELLG | inactive
SLYMTVGESVPSMSASMYFG | inactive
SLYRKGRHFGGCSCSIVRFR | 0.319 ± 0.78
SLYRWYVQMRGIR | inactive
SMASK | -0.64 ± 0.82
SMEIGLGVEIYDVMRFGERM | inactive
SMIGQSVEFYLISCYRGLCT | inactive
SMLAFDLGGCAQTVTGWW | inactive
SMLISRSEHLRLDTFGDSRY | 0.634 ± 0.13
SMQGDRWFLVL | inactive
SMRILR | inactive
SMRSGVLGHIIQTM | inactive
SMSAMYDSAIVV | inactive
SMSFTQFKGGGSIIITWCWP | inactive
SMTHRPTAVHSDVHGQCVKW | inactive
SNAHMCVRRTAWKNI | inactive
SNCFRILYTCAVAQLPPCMR | inactive
SNCSSWSSPV | inactive

Substance | amyloid nucleation score
SNEHAVVYS | inactive
SNGELTVEHQGLQPLGEKRT | inactive
SNGHFAVGDDPEK | inactive
SNGKVTLYKRLRDTSPQGIY | inactive
SNGVRSRLLE | inactive
SNGWFYFCFVSWWHSSFDGS | inactive
SNHITRFQLESQTIPIISFV | inactive
SNILAA | inactive
SNITAVYAVVTNIRWLYVRT | inactive
SNLRFFVAFLQGRSLN | 0.959 ± 0.23
SNSRNSTGVVQMTRIPKMMR | inactive
SNTCHLINAKVDPVHERMLS | 0.176 ± 0.85
SNVEYCLYARLYLGCGVCHP | 0.176 ± 0.42
SNVVSSI | inactive
SNYCCRVSFVIKLLRMVYNF | 2.42 ± 0.08
SNYWNWGRGYVCSRFRELVI | inactive
SPDHLGRLLY | inactive
SPFEFRCIVESEFCMKNWAG | 0.866 ± 0.25
SPRQHARCRTLTLTRTLRPM | inactive
SQASLFFSGWWILFTYMLGW | inactive
SQFTIVVTAVLVT | inactive
SQLCITNSRW | inactive
SQLQVISKIENSRKVIQRSS | inactive

Substance | amyloid nucleation score
SQLVVLCCCRSPSFYCGVL | 1.32 ± 0.17
SQVGWG | inactive
SQYTRCSVYIVW | 1.43 ± 0.079
SRCFNSGTYPEICVHRVLKV | inactive
SRCRMIGMVISWNG | inactive
SRDFVKYISEERS | inactive
SREFSGCNNV | inactive
SRFLKCF | inactive
SRFQWLWKMCSNDG | inactive
SRFYSDTQPTCGWKRVESRG | -0.897 ± 2.5
SRHRNYHFCRILQCGFERSW | -0.526 ± 0.93
SRIKD | inactive
SRKCWAHKSIDVEVATSSAK | inactive
SRKIFEGTIRIRLTDSASFS | inactive
SRLDALLMKLCFVICLRILK | inactive
SRNPEAEHRIIMRAQSTGYF | inactive
SRSSWGPSAIPYYKKLFMLF | inactive
SRTVKSRGSAQQDCGRVLRD | inactive
SRVILL | inactive
SRYMNRR | inactive
SSACYTVLPGKAPTPAYPLL | inactive
SSARYPAGLIVLHWLGCLKA | inactive
SSCRTRC | -0.405 ± 0.76

Substance | amyloid nucleation score
SSDGFCLVIVYVCPSWYMLV | inactive
SSDSKGFHGFGWFFWISLVT | inactive
SSEHFGCEASGVAER | inactive
SSFFRMLVLIVMRCQDTSNR | inactive
SSFSFYYDFIHS | -0.433 ± 0.88
SSGNMCFYPAPGYYWIATSK | inactive
SSIGCPYLSYDYCFPTMWIW | inactive
SSIGFLRSLGHQRPRSVSLP | inactive
SSLLKFDFPVLPCHDLRLAL | inactive
SSLRR | inactive
SSLVL | inactive
SSMWCMDRSLYTNYEYQRVL | 0.054 ± 0.36
SSNRGFIIMFEFLASWGFLA | inactive
SSSNLLKPSYFCKGSRGASQ | inactive
SSSRMFSSLFSVCIWVDTII | inactive
SSSTGAFGDSGGR | inactive
SSSVCRSLSPLILSHKRYYS | inactive
SSTTE | inactive
SSVRRYHKLIKRRDYVAFNV | inactive
SSWADYSKPYSGFCQGYRVY | inactive
SSWYSRAPWLRVEMRRKWYM | 0.025 ± 0.61
STELYVNLDQVSPYSVRQLT | inactive
STFSYSPVACWCFGGISQVG | -0.797 ± 2.5

Substance | amyloid nucleation score
STHFRCELQRICF | inactive
STIKFTGFVYFSN | inactive
STIVL | inactive
STLLRDEML | inactive
STPSTQDFVKQSLEARVLSS | inactive
STQCFDELMYA | inactive
STQTGASRRENSPMGLGYNS | inactive
STQTLEKNDVWGFLHSYWCR | 0.128 ± 0.41
STSFNIRIFMYKFAYF | 1.31 ± 0.095
STSVVELVNLVDDLRLNLSR | inactive
STTVLQQSLLKNKNLSWDAS | inactive
STVRVWHCLFFFLIGVHNCC | inactive
SVALYVPLQSYSQQFLEVAT | inactive
SVAVRWKAYVMVLSEHSPRG | inactive
SVDGDLAEDNMLMVSFSIGK | 0.128 ± 0.54
SVDYDMARSVGCPFWSPKRV | inactive
SVERFIMPC | inactive
SVGEKGN | inactive
SVGMFSVESLVLVKLRLWNL | inactive
SVGRQSLYDL | 0.285 ± 0.24
SVHPGTRG | inactive
SVIARVVRPMLRCKVSSMSM | inactive
